Laboratory results: US20070248589A1 (GOVERNMENT OF THE UNITED STATES OF AMERICA AS REPRESENTED …, published 2007)

T1: GST-SPATIAL(L) (Mus musculus, UniProt Q7TSD4)
T1 construct: made in house
T1 sequence (Q7TSD4 with tags, fused parts or gaps isoform Q7TSD4-6 limits assumed): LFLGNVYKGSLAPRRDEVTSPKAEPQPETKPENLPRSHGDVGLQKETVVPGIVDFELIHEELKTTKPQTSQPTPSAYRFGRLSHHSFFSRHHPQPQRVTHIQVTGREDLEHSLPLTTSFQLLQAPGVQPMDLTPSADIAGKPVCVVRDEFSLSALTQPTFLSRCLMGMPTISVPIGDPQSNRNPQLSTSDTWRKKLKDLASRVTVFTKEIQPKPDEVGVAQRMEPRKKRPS

T2: Uba3/AppBP1 protein complex (Mus musculus, UniProt Q8C878)
T2 construct: Myc-tagged, full-length mouse Uba3; host or cells: cell-free: TNT Coupled Reticulocyte Lysate System, 35S-methionine labelled
T2 sequence (Q8C878 22-462 V120X/V142X/I148X/P243X limits assumed): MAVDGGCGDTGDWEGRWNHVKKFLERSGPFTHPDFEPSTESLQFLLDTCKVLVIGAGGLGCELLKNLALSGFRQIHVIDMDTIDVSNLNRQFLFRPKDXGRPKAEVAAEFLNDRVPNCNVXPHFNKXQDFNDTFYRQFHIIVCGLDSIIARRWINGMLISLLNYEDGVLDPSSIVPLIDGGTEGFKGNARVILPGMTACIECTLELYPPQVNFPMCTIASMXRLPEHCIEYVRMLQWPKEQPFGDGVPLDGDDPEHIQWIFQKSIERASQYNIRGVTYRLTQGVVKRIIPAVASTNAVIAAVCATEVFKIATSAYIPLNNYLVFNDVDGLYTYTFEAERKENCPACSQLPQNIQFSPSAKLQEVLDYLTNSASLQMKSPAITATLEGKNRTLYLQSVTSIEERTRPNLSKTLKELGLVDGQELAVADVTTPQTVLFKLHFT


Legend:
GST-SPATIAL(L) = molecular target: T1, GST-SPATIAL(L); experiment: GST pulldown assay with GST-SPATIAL long isoform; format: binding; settings: 35S-methionine labeled in vitro translated protein
Experimental: Eighteen cDNA clones identified in the yeast two-hybrid system were tested in an in vitro glutathione-S-transferase (GST) pulldown assay, as described in Ausubel et al., Current Protocols in Molecular Biology, Greene Publishing Associates, updated November 2003, Chapter 20, Analysis of Protein Interactions, Unit 20.2, Affinity Purification of Proteins Binding to GST Fusion Proteins.
Briefly, a GST-SPATIAL fusion construct was produced by cloning SPATIAL cDNA(s) into pGEx5X1 expression vector using standard molecular cloning techniques. GST or GST-SPATIAL fusion protein were expressed in 1-1000 ml bacterial cultures grown for 3-4 hours until OD600 reached 0.5. Then, plasmid expression was induced for 1.5-4 hours by the addition of ITPG to a final concentration of 0.11 mM. GST or GST-fusion proteins were purified using glutathione-Sepharose beads as described in Ausubel et al., Current Protocols in Molecular Biology, Greene Publishing Associates, updated November 2003, Chapter 20, Analysis of Protein Interactions, Unit 20.2, Affinity Purification of Proteins Binding to GST Fusion Proteins.
A coupled in vitro transcription and translation system (Promega) was used according to the manufacturer's instructions to produce radiolabeled protein from cDNAs to be tested. Radiolabeled proteins were mixed with either purified GST or GST-SPATIAL. Then, GST-containing protein complexes were purified by centrifugation from the reaction mixtures using glutathione-coated Sepharose beads. Bound proteins were eluted from the beads with SDS-PAGE loading buffer heated to 72-85° C., separated on polyacrylamide gels, and visualized by autoradiography. Specific interactions between GST-SPATIAL and in vitro translated proteins were indicated by the presence of a radiolabeled in vitro translated protein in the GST-SPATIAL-containing samples, but not in the GST-alone samples.
GST pulldown assays were performed as described in Example 9 using GST-SPATIAL(L) and GST-SPATIAL(S) and each of the Uba3 mutants described in this example.

293T cells = experiment: Uba3 co-transfection with SPATIAL-EGFP, growth arrest; format: cell-based, human; settings: transient over expression, 0.5, 2.5 or 4.5 μg/well Uba3 plasmid, FIG. 9
Experimental: To determine whether Uba3 is involved in SPATIAL mediated growth suppression, co-transfections were done using increasing amounts of an Uba3 expression vector with constant amounts of SPATIAL-EGFP or EGFP.
4×10^5 293T cells were transfected in 6 well plates using 5 μg of a mixture of plasmids. The plasmids used were pEGFP-N1 (0.5 μg/well), pEGFP-SPATIAL(L) (0.5 μg/well), pcDNA3.1 Myc/his M Uba3 (0.5, 2.5 or 4.5 μg/well) (pcDNA3.1 myc/His may be obtained from Invitrogen), and pWL-neo (4 or 2 μg/well). The plasmid pWL-neo (Stratagene) was used as a control plasmid to make sure that the total DNA in each transfection totaled 5 μg. Transfections were done using Lipofectamine 2000 using manufacturers instructions (Invitrogen).
Twenty four hours after transfection, the cells were trypsinized and re-plated onto 10 cm dishes and cultured for up to 6 days. The number of EGFP-positive cells were determine at 24, 36 and 144 hours after transfection by harvesting the cells, counting and FACS analysis to determine the percentage of EGFP-positive cells.

[1] = molecular target: T2, Uba3/AppBP1 protein complex; experiment: GST pulldown and immunoprecipitation, Uba3 and AppBP1 interaction; format: binding; settings: FIG. 4
Experimental: To determine whether SPATIAL has an effect on the neddylation pathway, cDNAs for each of the components of the Nedd8 conjugation pathway were obtained from EST depositories (AppBP1, GenBank Accession No. BC00480; Uba3, GenBank Accession No. BC002002). These cDNAs were used to produce radiolabeled proteins by in vitro transcription and translation.
The effect of SPATIAL on the first step of the pathway, the interaction between Uba3 and AppBP1, was tested using a GST pulldown assay
In a typical GST pulldown assay, GST and GST-SPATIAL were prepared from transformed bacterial cultures as previously described (e.g., Ausubel et al., Current Protocols in Molecular Biology, Greene Publishing Associates, updated November 2003, Chapter 20, Analysis of Protein Interactions, Unit 20.2, Affinity Purification of Proteins Binding to GST Fusion Proteins). After purification, GST and GST-SPATIAL proteins were mixed with glutathione-sepharose beads and the mixtures were frozen in 200 μl aliquots. The amount of protein bound to the beads was quantitated using a colormetric assay (BCA assay; Pierce-Endogen).
Uba3 and AppBP1 were in vitro translated and ^35S-methionine labeled using 0.5 μg of the respective expression plasmids in a 50 μl reaction using TNT® Coupled Reticulocyte Lysate Systems (Promega) by following the manufacturer's instructions. […]

Row | Molecule | interaction with GST-SPATIAL(L) (GST-SPATIAL(L)) | effect on growth inhibition of SPATIAL-EGFP transfected cells (293T cells) | effect on Uba3 binding to AppBP1 [1]
1 | Uba3: catalytic subunit of NEDD8 activating enzyme, a 441-amino acid protein (SEQ ID NO: 6) (protein, listed as Mus musculus, (99)..(99) The ′Xaa′ at location 99 stands for Val.; (121)..(121) The ′Xaa′ at location 121 stands for Val.; (127)..(127) The ′Xaa′ at location 127 stands for Ile.; (222)..(222) The ′Xaa′ at location 222 stands for Pro.) MAVDGGCGDTGDWEGRWNHVKKFLERSGPFTHPDFEPSTESLQFLLDTCKVLVIGAGGLGCELLKNLALSGFRQIHVIDMDTIDVSNLNRQFLFRPKDXGRPKAEVAAEFLNDRVPNCNVXPHFNKXQDFNDTFYRQFHIIVCGLDSIIARRWINGMLISLLNYEDGVLDPSSIVPLIDGGTEGFKGNARVILPGMTACIECTLELYPPQVNFPMCTIASMXRLPEHCIEYVRMLQWPKEQPFGDGVPLDGDDPEHIQWIFQKSIERASQYNIRGVTYRLTQGVVKRIIPAVASTNAVIAAVCATEVFKIATSAYIPLNNYLVFNDVDGLYTYTFEAERKENCPACSQLPQNIQFSPSAKLQEVLDYLTNSASLQMKSPAITATLEGKNRTLYLQSVTSIEERTRPNLSKTLKELGLVDGQELAVADVTTPQTVLFKLHFT | specifically bound | overcomes the growth inhibition | –
2 | GST-SPATIAL: glutathione-S-transferase SPATIAL fusion protein (protein, left off: a dimerising Fc or GST, glutathione-S-transferase SPATIAL fusion protein) LFLGNVYKGSLAPRRDEVTSPKAEPQPETKPENLPRSHGDVGLQKETVVPGIVDFELIHEELKTTKPQTSQPTPSAYRFGRLSHHSFFSRHHPQPQRVTHIQVTGREDLEHSLPLTTSFQLLQAPGVQPMDLTPSADIAGKPVCVVRDEFSLSALTQPTFLSRCLMGMPTISVPIGDPQSNRNPQLSTSDTWRKKLKDLASRVTVFTKEIQPKPDEVGVAQRMEPRKKRPS | – | – | interferes with Uba3 binding to AppBP1
